Results taken from the supplement of paper PMC10567573.
± gives the standard deviation.

Experiment: protein stability index of a GFP-peptide fusion (GPS, HEK-293T) (PSI 1-6); higher = more stable
Conditions: c terminus: a fixed tail appended
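Note: 24-mer peptide tiles fused after GFP, lentivirally expressed, FACS-sorted into six equal bins by GFP/DsRed ratio, decoded by Illumina sequencing, PSI is the read-weighted mean bin number.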

Sequence	protein stability index (treatment: DMSO)	protein stability index (treatment: MLN4924 1 uM, 8 h)
YKSFSKEQQTMDNLEKQLICPICL [TRIM55]	2.72 ± 0.38	2.77 ± 0.8
AYTQTQFHNLRNTLDGYGIHPKSI [NFE2L1]	2.57 ± 0.3	2.34 ± 0.26
EEEEEEEAAGVVVEEELFHQQGTP [LMNB1]	5.38 ± 0.31	5.47 ± 0.41
QFHDLMELFRIGGKSPDTNYLFMG [PPP2CA]	2.53 ± 0.58	2.24 ± 0.39
EGGKLPPPPPPSYDPDYIQCPYCQ [ZC2HC1A]	4.03 ± 0.3	4.45 ± 0.27
PGGETEALTRLERHLERKAWVANF [CRY1]	3.04 ± 0.36	3.07 ± 0.39
GSESYKSSAGSAEQTAPGDSTGYM [EHMT1]	5.16 ± 0.25	5.21 ± 0.3
GEGLRIYWGSPEEQSLLSRWNPWS [TPRG1]	2.28 ± 0.2	1.9 ± 0.35
DQNRDGFIDKEDLKDTYASLGKTN [MYL5]	5.12 ± 0.092	5.2 ± 0.14
VPECRLAEDLGNLWENTRFTDCSF [SPOPL]	2.74 ± 0.34	3.21 ± 0.44
KKNWRRVYKSLLLLAYLIRNGSER [CLINT1]	2.35 ± 0.65	2.44 ± 0.29
NELDSGFRLLNLKNDSLRKRYDGL [TSN]	3.21 ± 0.28	3.43 ± 0.36
EAETPPNGPDCGYGSFHQQYWLDG [ATE1]	3.89 ± 0.31	4.15 ± 0.11
PARLLLQALQAGPEGARRGLGVLR [FANCE]	2.67 ± 0.16	2.82 ± 0.34
VAACTKEIDTQGRHLAHSMLQRAI [C10orf62]	2.86 ± 0.41	2.9 ± 0.14
PPSGSQPLTSTQGLEHAAAGGSSG [FBF1]	5.3 ± 0.2	5.44 ± 0.15
LYLNLALHLASDFFLKHPDKDVRL [PDS5B]	2.73 ± 0.41	3.29 ± 0.27
CPPPPGPAAAPEGDWARLLEQMGA [ZBED3]	3.53 ± 0.18	3.58 ± 0.84
SIYPMEVLKTRMALRKTGQYSGML [SLC25A25]	2.48 ± 0.36	2.6 ± 0.52
LVHVMERSLSPSLSSVDMRMTSSP [RAD54B]	2.51 ± 0.34	2.58 ± 0.36
ASLKSEAESLKGKLEEERAKLHDV [GNB5]	5.32 ± 0.11	5.26 ± 0.32
RESFTSRQKTSGPSVIQEIHQESG [C10orf62]	4.94 ± 0.099	5.02 ± 0.24
EERAKAKHLARQLEEKDRVLKKQD [CHCHD3]	5.51 ± 0.14	5.42 ± 0.16

Sequence	protein stability index (treatment: DMSO)	protein stability index (treatment: MLN4924 1 uM, 8 h)
EMAEQLMTLAYDNGINLFDTAEVY [KCNAB2]	2.3 ± 0.44	2.44 ± 0.29
AEEYEDSSTKPPKSRRKAALSSPR [INTS3]	5.23 ± 0.12	5.27 ± 0.27
LTCALMLLNTDLHGHNIGKKMSCQ [PSD2]	2.54 ± 0.49	2.41 ± 0.74
RSEQSVKLRRQVIQVVLNGMESYQ [ZER1]	2.41 ± 0.13	2.32 ± 0.18
ELETVDFKDKLEETKGQINNSIKD [SERPINB5]	5.29 ± 0.46	5.51 ± 0.12
RGLPLLKTDFGSCLLQPPSCPNGM [DLC1]	2.69 ± 0.22	2.67 ± 0.41
KEILRTLQDVFCWLPLATLIDEKV [PPEF2]	2.46 ± 0.25	3.03 ± 0.57
KEEKCQGKGDDSETDKNNCSNAKA [KCNA4]	5.49 ± 0.088	5.55 ± 0.19
CHSHTVVQDYSYFFFLRMDENYNL [CCDC3]	2.49 ± 0.68	2.4 ± 0.63
TLRPDQQLHIFNTLRSHLIDKGML [CDS2]	2.14 ± 0.28	2.24 ± 0.13
AYVLSKYQYFVCPVEYRSDVNSFV [CDS1]	2.6 ± 0.46	2.68 ± 0.75
LFEGLGRDKAEELLQLPDTKVGSF [SLA]	3.82 ± 0.28	4.13 ± 0.15
NIQETHRLYRLKLEELTKLQNNCT [TMEM120A]	2.92 ± 0.19	3.08 ± 0.29
SNIDKKFSAHYDAVEAELKSSTVG [FAM50A]	4.64 ± 0.18	4.83 ± 0.28
DSAQFTKALAIILHLLYLLEKVEC [FEM1A]	2.22 ± 0.33	2.11 ± 0.34
KKKTKVLKQRTVIEMFKSITHSTV [EHMT1]	2.44 ± 0.35	2.19 ± 0.47
DGASVNENHEIYMKDSMSAAEVGT [EPB41L3]	5.31 ± 0.28	5.34 ± 0.32
GNEKITMQNLNDRLASYLDKVRAL [KRT15]	2.6 ± 0.73	2.78 ± 0.5
DPIIDSWEVVTSMGTQRCDAGVCV [KLHL12]	3 ± 0.21	2.95 ± 0.39
EKLKVAPPNADLEQGFQEGVPNAS [MFF]	5.28 ± 0.17	5.22 ± 0.17
TLQHWPHIIRIGDLKPTGEIPKQV [DENND6A]	2.3 ± 0.29	2.74 ± 0.24
TDIKDESCCMTEEIFGPVTCVVPF [ALDH8A1]	3.53 ± 0.23	3.48 ± 0.3
HMFVWGGYKSNQVRGLYDFYLPRE [KLHDC2]	2.24 ± 0.26	2.19 ± 0.5

Sequence	protein stability index (treatment: DMSO)	protein stability index (treatment: MLN4924 1 uM, 8 h)
NVNRLNESFRDLQLRLLQAPLQAD [SCARA5]	3.3 ± 0.38	3.33 ± 0.34
AWKDDFALNSMLRRRFREKKKAIQ [YJU2B]	3.27 ± 0.36	3.37 ± 0.13
AKVTGEVLDILTRLPESVERLTGV [FLOT1]	2.98 ± 0.37	3.17 ± 0.34
LDKLLQGGIETGSITEMFGEFRTG [RAD51]	3.07 ± 0.26	3.06 ± 0.28
IKGLQRKERLKPAHIHLQQLTCFS [KRT34]	2.3 ± 0.39	2.36 ± 0.37
NNTGKNLELKFVSSLRRQFEFSVD [TENT5D]	2.75 ± 0.42	2.75 ± 0.4
TYSKFQPQSPDFLDITNPKAVLEN [UFD1]	3.92 ± 0.18	4.24 ± 0.076
SDVVPEKERPLVIGHFNTASGVGF [MFSD9]	3.49 ± 0.26	3.52 ± 0.25
MDGATLCNCALEELRLVFGPLGDQ [ELF3]	2.33 ± 0.27	2.4 ± 0.68
RRDPSIPIYGLRQSILLNTRLQDC [C22orf31]	2.74 ± 0.55	2.37 ± 0.31
ELLTLVNRKVSQRRVDFCKDPSAI [CASP6]	2.22 ± 0.36	2.24 ± 0.14
AVVKPGNTKEKIAFFASHQCSNRI [FBXO34]	3.81 ± 0.24	3.83 ± 0.35
RLEQEIATYRSLLEGQDAKMIGFP [KRT13]	3.06 ± 0.1	3.36 ± 0.34
EFSLVNVNLQRFGMNGQMLCNLGK [ETS2]	2.32 ± 0.4	2.58 ± 0.16
GGSHPSRPNSRHTPSFSGDSSSSC [VDR]	4.75 ± 0.28	4.73 ± 0.19
AARAVRANDINYQDQIPRTLEEFV [FEM1B]	3.96 ± 0.21	3.77 ± 0.32
SVTKEGLELPEDEEEKKKMEESKA [HSP90AB1]	5.68 ± 0.32	5.54 ± 0.39
ACDIRVAASSAKMGLVETKLAIIP [AUH]	2.95 ± 0.22	3.03 ± 0.32
QSKGHGRAVDWWALGILIFEMLSG [PRKX]	2.58 ± 0.58	2.56 ± 0.36
DDLTVVDAASLRRQIIKLNRRLQL [MFF]	2.49 ± 0.27	2.9 ± 0.65
PPNGPNLPMATVDIKNPEITTNRF [WASL]	4.48 ± 0.15	4.16 ± 0.29
CGKCFSQNTHLTRHQRTHTGEKPY [ZNF263]	2.94 ± 0.16	3.22 ± 0.14
LGKLPPQYALELLTVYAWERGSMK [OAS1]	2.31 ± 0.61	2.36 ± 0.41

Sequence	protein stability index (treatment: DMSO)	protein stability index (treatment: MLN4924 1 uM, 8 h)
TPATPEDPAPLWGPPPAQGSPGDG [EMID1]	5.3 ± 0.48	5.31 ± 0.22
HLKSSRNSTSVKKKSSRNIFSIVF [P2RY14]	2.39 ± 0.48	2.13 ± 0.55
MAAGGSGVGGKRSSKSDADSGFLG [NOP53]	3.57 ± 0.22	3.96 ± 0.12
ALVETSYVKVLHHMVKISGGPHIS [MAGEA3]	2.8 ± 0.52	2.82 ± 0.78
LFRCIQNMPETLPNNSCYSAGIAK [TNFSF13B]	2.63 ± 0.3	2.68 ± 0.16
DTISTIKSVAWEGGACPAFLPSLR [NCF4]	2.92 ± 0.3	2.9 ± 0.38
AAKQLEYQQLEDDKLSQKSSSSKL [EPB41L3]	5 ± 0.64	4.92 ± 0.33
LKRSIPQVSPVRRAPSRRHGVRAK [CPN1]	4.58 ± 0.23	4.67 ± 0.17
VVHQRVHSGEKPYKCSDCGKTFKQ [ZNF232]	3.29 ± 0.25	3.43 ± 0.23
RSRDSNSGPEEPLLEEEEKQWGPL [RTN2]	5.05 ± 0.53	5.45 ± 0.53
VAGVLPDIEQFFNIGDSSSGLIQT [SPNS1]	3.16 ± 0.25	3.32 ± 0.43
ELFAWGRGDSGRLGLGTRESHSCP [NEK8]	2.95 ± 0.26	3.27 ± 0.22
EYVAIKLEPMKSRAPQLHLEYRFY [CSNK1G3]	3.3 ± 0.41	2.93 ± 0.64
GKKVAVVLMDTQGAFDSQSTVKDC [ATL3]	3.46 ± 0.87	3.66 ± 0.44
VEAMYCYLRCIQSEVSFEGAYGNL [SMG5]	3.13 ± 0.35	3.12 ± 0.63
FLPFLLCAVLLSAVQAQAGWLQHD [FADS1]	2.73 ± 0.23	3.02 ± 0.66
NIKANDYANAVLQALSNVPPLRNY [USP39]	2.18 ± 0.21	2.03 ± 0.32
RVEESGSKKEGKRQGPKEPPRKSG [PBXIP1]	5.33 ± 0.17	5.33 ± 0.48
FIEALIQQYQEQLDKSTKLVETAI [TRIM63]	2.66 ± 0.52	2.14 ± 0.39
SIKPEASQMPPPAGGTSDDPEPSG [SCNN1D]	5.43 ± 0.15	5.57 ± 0.28
